Like-named read-outs stand apart in the source and are kept apart here. Blank lines part the entries; values can stand above or below the binder they belong to.
Assays:
[1] = molecular target: T1, soluble fusion protein KDR-AP (KDR extracellular domain fused to human placental alkaline phosphatase) (human, UniProt P35968 20-764); test: competitive ELISA: KDR-AP binding to immobilized VEGF165
T1 construct: extracellular domain; also called immobilized KDR; KDR receptor; not shown: human placental alkaline phosphatase (vector AP-Tag)

[2] = molecular target: T1, soluble fusion protein KDR-AP (KDR …); test: BIAcore, KDR-AP immobilized
Method: The binding kinetics of antibodies to KDR were measured using BIAcore biosensor (Pharmacia Biosensor). […] Sensorgrams were obtained at each concentration and were evaluated using a program, BIA Evaluation 2.0, to determine the rate constants kon and koff. Kd was calculated as the ratio of rate constants koff/kon.
*All rates are determined by surface plasmon resonance using BIAcore system, and are mean of at least three separate determinations.

[3] = molecular target: chimeric receptor mouse FLK-1/human fms expressed on transfected 3T3 cells (C441) (mouse; human) (UniProt P35918); test: cell-based or functional assay
[4] = molecular target: chimeric receptor mouse FLK-1/human fms expressed on transfected 3T3 cells (C441) (mouse; human) (UniProt P35918); test: saturation binding to intact C441 cells, colorimetric detection
[5] = molecular target: T1, soluble fusion protein KDR-AP (KDR …); test: competitive VEGF blocking ELISA: KDR-AP binding to immobilized VEGF165
[6] = molecular target: T1, soluble fusion protein KDR-AP (KDR …); test: direct binding ELISA on KDR-coated plates (printed ED50, 50% of maximum binding)
Method: In the direct binding assay, various amounts of soluble scFv were added to KDR-coated 96-well Maxi-sorp microtiter plates and incubated at room temerature for 1 h, after which the plates were washed 3 times with PBST. The plates were then incubated at room temerature for 1 h with 100 μl of mouse anti-E tag antibody followed by incubation with 100 µl of rabbit anti-mouse antibody-HRP conjugate. The plates were washed and developed following the procedure described above for the phage ELISA.

[7] = molecular target: T1, soluble fusion protein KDR-AP (KDR …); test: BIAcore, KDR-AP immobilized; remark: listed apart in the source
Method: The binding kinetics of soluble scFv to KDR were measured using BIAcore biosensor (Pharmacia Biosensor). KDR-AP fusion protein was immobilized onto a sensor chip and soluble scFv were injected at concentrations ranging from 62.5 nM to 1000 nM. Sensorgrams were obtained at each concentration and were evaluated using a program, BIA Evaluation 2.0, to determine the rate constant kon and koff. Kd was calculated from the ratio of rate constants koff/kon.

[8] = molecular target: KDR expressed on HUVEC (human, UniProt P35968 20-1356); test: cell-based or functional assay
Sequence of KDR expressed on HUVEC (P35968 20-1356): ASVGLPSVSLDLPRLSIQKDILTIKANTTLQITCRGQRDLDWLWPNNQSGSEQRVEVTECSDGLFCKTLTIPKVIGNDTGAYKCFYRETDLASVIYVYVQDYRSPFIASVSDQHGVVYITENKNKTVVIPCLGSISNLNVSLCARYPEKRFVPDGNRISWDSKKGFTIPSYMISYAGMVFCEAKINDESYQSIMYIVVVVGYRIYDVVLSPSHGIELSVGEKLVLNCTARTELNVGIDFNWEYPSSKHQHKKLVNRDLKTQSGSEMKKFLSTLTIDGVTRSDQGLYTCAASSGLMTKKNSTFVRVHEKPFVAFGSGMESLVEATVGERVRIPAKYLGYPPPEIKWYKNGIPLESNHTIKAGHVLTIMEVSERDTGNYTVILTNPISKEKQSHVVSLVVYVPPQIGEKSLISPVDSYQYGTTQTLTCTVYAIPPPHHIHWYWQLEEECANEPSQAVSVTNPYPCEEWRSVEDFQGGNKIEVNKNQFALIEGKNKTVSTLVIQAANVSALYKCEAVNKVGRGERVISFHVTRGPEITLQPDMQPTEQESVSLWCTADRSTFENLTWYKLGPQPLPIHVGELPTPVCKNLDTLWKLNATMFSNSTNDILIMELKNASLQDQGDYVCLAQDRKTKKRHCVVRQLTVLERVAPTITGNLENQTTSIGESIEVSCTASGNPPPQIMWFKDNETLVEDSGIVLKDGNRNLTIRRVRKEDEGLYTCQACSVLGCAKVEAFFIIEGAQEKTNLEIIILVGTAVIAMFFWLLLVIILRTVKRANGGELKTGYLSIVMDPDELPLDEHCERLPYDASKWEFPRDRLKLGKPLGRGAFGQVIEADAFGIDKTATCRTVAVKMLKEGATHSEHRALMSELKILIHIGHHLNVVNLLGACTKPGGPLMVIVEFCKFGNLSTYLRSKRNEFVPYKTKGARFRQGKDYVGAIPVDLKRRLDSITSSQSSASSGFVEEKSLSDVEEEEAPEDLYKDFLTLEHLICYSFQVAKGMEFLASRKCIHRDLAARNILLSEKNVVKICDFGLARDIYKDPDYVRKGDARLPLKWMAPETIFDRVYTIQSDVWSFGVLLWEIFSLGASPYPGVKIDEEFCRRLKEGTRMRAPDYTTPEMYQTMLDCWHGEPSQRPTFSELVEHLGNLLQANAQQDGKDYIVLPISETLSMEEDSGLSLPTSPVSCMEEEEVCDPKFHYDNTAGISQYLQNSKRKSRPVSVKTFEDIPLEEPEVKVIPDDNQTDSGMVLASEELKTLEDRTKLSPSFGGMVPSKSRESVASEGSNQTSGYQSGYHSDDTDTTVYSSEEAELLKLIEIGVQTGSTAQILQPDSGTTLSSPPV

T1 sequence (P35968 20-764): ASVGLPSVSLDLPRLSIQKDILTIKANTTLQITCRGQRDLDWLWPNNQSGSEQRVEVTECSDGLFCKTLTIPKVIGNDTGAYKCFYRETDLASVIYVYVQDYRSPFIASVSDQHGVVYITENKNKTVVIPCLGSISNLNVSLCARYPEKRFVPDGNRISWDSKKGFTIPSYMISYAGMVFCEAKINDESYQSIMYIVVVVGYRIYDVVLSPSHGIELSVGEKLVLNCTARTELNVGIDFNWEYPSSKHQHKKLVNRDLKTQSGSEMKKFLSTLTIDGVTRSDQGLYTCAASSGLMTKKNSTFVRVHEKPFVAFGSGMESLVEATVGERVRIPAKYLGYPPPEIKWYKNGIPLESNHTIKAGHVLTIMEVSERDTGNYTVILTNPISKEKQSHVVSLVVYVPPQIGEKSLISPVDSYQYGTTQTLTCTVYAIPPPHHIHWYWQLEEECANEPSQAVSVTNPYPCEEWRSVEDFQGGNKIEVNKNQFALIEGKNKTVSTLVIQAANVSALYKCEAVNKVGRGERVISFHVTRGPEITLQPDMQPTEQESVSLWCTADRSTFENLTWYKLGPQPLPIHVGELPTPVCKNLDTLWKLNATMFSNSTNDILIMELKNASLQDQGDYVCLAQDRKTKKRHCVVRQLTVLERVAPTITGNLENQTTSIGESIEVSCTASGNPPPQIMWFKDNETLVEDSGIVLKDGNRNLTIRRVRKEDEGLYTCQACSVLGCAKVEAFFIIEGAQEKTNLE
Sequence of chimeric receptor mouse FLK-1/human fms expressed on transfected 3T3 cells (C441) (mouse; human) (P35918 other isoform, or with tags, fused parts or gaps mutant limits assumed): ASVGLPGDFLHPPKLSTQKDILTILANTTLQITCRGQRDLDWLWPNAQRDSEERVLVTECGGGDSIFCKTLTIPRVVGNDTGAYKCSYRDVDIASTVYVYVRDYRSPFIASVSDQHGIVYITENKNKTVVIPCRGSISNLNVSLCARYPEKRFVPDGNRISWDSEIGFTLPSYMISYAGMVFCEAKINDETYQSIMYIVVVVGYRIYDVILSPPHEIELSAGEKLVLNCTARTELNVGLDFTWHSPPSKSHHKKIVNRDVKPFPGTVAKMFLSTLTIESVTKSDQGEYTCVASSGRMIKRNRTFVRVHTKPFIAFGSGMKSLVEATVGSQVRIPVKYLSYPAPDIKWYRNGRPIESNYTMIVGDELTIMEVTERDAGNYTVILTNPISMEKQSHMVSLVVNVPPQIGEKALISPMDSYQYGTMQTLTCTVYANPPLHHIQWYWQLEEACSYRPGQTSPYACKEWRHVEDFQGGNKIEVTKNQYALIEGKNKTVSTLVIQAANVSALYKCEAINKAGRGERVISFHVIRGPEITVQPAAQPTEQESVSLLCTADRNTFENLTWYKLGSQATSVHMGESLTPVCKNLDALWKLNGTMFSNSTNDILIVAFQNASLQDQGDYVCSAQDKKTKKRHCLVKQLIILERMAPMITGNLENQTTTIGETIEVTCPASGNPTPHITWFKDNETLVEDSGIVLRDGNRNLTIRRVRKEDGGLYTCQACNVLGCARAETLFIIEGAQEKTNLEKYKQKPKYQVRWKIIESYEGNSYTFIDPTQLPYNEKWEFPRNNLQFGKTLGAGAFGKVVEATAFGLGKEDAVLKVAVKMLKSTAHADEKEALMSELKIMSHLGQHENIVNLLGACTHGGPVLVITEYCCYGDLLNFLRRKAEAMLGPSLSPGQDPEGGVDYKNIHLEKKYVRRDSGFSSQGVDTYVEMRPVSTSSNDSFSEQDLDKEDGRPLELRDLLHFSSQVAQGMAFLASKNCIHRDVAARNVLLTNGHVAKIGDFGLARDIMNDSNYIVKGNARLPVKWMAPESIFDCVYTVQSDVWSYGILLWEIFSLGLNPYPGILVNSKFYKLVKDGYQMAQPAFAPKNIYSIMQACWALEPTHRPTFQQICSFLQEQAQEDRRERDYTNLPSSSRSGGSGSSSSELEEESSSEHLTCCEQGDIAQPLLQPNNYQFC

- IC50 [1]: 0.8 nM
- Kd [2]: 0.82 nM
- koff [2]: 5.2e-05 s⁻¹
- kon [2]: 63000 M⁻¹ s⁻¹
B1: chimeric p1C11 IgG (c-p1C11) (antibody, V domains shown)
VH: QVKLQQSGAELVGSGASVKLSCTTSGFNIKDFYMHWVKQRPEQGLEWIGWIDPENGDSDYAPKFQGKATMTADSSSNTAYLQLSSLTSEDTAVYYCNAYYGDYEGYWGQGTTVTVSS
VL: DIELTQSPAIMSASPGEKVTITCSASSSVSYMHWFQQKPGTSPKLWIYSTSNLASGVPARFSGSGSGTSYSLTISRMEAEDAATYYCQQRSSYPFTFGSGTKLEIK
notes: bivalent IgG made in COS cells; also called chimeric IgG

- antibody concentration giving a marked decrease in the phosphorylation of FLK-1, competitive conditions [3]: > 0.5 µg/mL
- antibody concentration giving a marked decrease in the phosphorylation of FLK-1 by VEGF165 (40 ng/ml) [3]: > 0.5 µg/mL
- antibody concentration sufficient to inhibit receptor activation by ligand [3]: < 1 µg/mL
- level of FLK-1/fms phosphorylation relative to the fully stimulated receptor control, antibody added with VEGF (densitometry) [3]: 40%
- level of FLK-1/fms phosphorylation relative to the fully stimulated receptor control, antibody prebound (densitometry) [3]: 6%
- prebound antibody concentration sufficient to completely inhibit receptor activation by ligand [3]: < 1 µg/mL
- relative apparent affinity [4]: 500 ng/mL
B2: rat anti-mouse FLK-1 monoclonal antibody DC-101 (antibody, from another filing, rat IgG1, V domains shown)
VH: EVQLVETGGGLVQPGNSLKLSCATSGFIFSTTWMNWIRQTPGKRLEWLAQIEDKSNNYFISYSESVKGRFTISRDDSKSSVYLQMNNLKEEDTAIYYCSWKYRSNYYFDYWGQGVMVTVSS
VL: DIVLTQSPALAVSLEQRATISCKTSQNVDYYGISYLHWYQQKPGQQPKLLIYEGSNLASGIPARFSGSGSGTDFTLTIDPVEADDIVTYYCQQSKDYPYTFGAGTKLELKR

- IC50 [1]: 2 nM
- IC50 [5]: 3 nM
- EC50 [6]: 0.3 nM
- Kd [2]: 2.1 nM
- koff [2]: 0.000227 s⁻¹
- kon [2]: 111000 M⁻¹ s⁻¹
- Kd [7]: 2.1 nM
- koff [7]: 0.00023 s⁻¹
- kon [7]: 110000 M⁻¹ s⁻¹
- EC50, the antibody concentration that inhibited 50% of VEGF-stimulated mitogenesis of HUVEC [8]: ~5 nM
B3: anti-KDR single chain antibody p1C11 (scFv)
scFv: QVKLQQSGAELVGSGASVKLSCTTSGFNIKDFYMHWVKQRPEQGLEWIGWIDPENGDSDYAPKFQGKATMTADSSSNTAYLQLSSLTSEDTAVYYCNAYYGDYEGYWGQGTTVTVSSGGGGSGGGGSGGGGSDIELTQSPAIMSASPGEKVTITCSASSSVSYMHWFQQKPGTSPKLWIYSTSNLASGVPARFSGSGSGTSYSLTISRMEAEDAATYYCQQRSSYPFTFGSGTKLEIK
notes: also called scFv p1C11; p1C11 scFv

Source: patent publication US20030103973A1 (published 2003)
